Data published in PMC10397247.

Legend:
Assay in all cases: two-hybrid library CCNG1;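 also: natural log of median RNA to DNA barcode read ratio; higher means stronger binding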
4H2585-bN = molecular target: T1, 4H2585-bN
T1 chain: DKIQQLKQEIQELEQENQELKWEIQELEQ

4H3297-bN = molecular target: T2, 4H3297-bN
T2 chain: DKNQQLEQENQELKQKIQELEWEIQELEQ

4H349-bN = molecular target: T3, 4H349-bN
T3 chain: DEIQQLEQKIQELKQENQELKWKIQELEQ

4H796-bN = molecular target: T4, 4H796-bN
T4 chain: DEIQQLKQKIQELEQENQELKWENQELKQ

4H949-bN = molecular target: T5, 4H949-bN
T5 chain: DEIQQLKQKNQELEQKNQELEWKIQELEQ

4H2859-bN = molecular target: T6, 4H2859-bN
T6 chain: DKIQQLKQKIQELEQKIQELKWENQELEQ

4H56-bN = molecular target: T7, 4H56-bN
T7 chain: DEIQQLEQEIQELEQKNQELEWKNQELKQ

4H2233-bN = molecular target: T8, 4H2233-bN
T8 chain: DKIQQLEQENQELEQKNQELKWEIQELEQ

4H730-bN = molecular target: T9, 4H730-bN
T9 chain: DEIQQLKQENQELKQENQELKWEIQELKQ

4H2143-bN = molecular target: T10, 4H2143-bN
T10 chain: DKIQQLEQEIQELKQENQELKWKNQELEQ

4H264-bN = molecular target: T11, 4H264-bN
T11 chain: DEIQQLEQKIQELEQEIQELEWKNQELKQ

4H2760-bN = molecular target: T12, 4H2760-bN
T12 chain: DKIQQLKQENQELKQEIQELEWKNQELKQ

4H3364-bN = molecular target: T13, 4H3364-bN
T13 chain: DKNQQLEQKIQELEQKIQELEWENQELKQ

4H2162-bN = molecular target: T14, 4H2162-bN
T14 chain: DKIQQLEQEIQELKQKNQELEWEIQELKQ

4H2931-bN = molecular target: T15, 4H2931-bN
T15 chain: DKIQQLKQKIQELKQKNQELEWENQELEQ

4H235-bN = molecular target: T16, 4H235-bN
T16 chain: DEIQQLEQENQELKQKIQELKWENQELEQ

4H3041-bN = molecular target: T17, 4H3041-bN
T17 chain: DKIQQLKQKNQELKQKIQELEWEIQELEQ

4H3381-bN = molecular target: T18, 4H3381-bN
T18 chain: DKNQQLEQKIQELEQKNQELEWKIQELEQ

4H166-bN = molecular target: T19, 4H166-bN
T19 chain: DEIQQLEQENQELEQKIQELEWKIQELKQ

4H2253-bN = molecular target: T20, 4H2253-bN
T20 chain: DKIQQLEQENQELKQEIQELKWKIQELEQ

4H2518-bN = molecular target: T21, 4H2518-bN
T21 chain: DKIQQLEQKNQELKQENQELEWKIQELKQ

4H2444-bN = molecular target: T22, 4H2444-bN
T22 chain: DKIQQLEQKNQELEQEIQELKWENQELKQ

4H932-bN = molecular target: T23, 4H932-bN
T23 chain: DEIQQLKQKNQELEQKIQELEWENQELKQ

4H3354-bN = molecular target: T24, 4H3354-bN
T24 chain: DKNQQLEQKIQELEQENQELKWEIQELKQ

4H908-bN = molecular target: T25, 4H908-bN
T25 chain: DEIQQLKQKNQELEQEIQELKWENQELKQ

4H754-bN = molecular target: T26, 4H754-bN
T26 chain: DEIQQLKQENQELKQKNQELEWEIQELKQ

4H2618-bN = molecular target: T27, 4H2618-bN
T27 chain: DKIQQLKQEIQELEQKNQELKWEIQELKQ

4H918-bN = molecular target: T28, 4H918-bN
T28 chain: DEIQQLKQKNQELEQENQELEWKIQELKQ

4H2442-bN = molecular target: T29, 4H2442-bN
T29 chain: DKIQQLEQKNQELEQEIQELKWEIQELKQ

P3A-bN = molecular target: T30, P3A-bN
T30 chain: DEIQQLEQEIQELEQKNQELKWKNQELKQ

4H338-bN = molecular target: T31, 4H338-bN
T31 chain: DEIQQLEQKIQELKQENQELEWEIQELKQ

4H3782-bN = molecular target: T32, 4H3782-bN
T32 chain: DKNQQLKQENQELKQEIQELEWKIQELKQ

4H4001-bN = molecular target: T33, 4H4001-bN
T33 chain: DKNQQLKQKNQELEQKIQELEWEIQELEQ

4H3112-bN = molecular target: T34, 4H3112-bN
T34 chain: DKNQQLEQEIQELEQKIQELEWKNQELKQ

4H953-bN = molecular target: T35, 4H953-bN
T35 chain: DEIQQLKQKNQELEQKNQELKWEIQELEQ

4H687-bN = molecular target: T36, 4H687-bN
T36 chain: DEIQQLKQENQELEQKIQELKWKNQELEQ

4H3427-bN = molecular target: T37, 4H3427-bN
T37 chain: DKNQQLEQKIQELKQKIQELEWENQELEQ

4H797-bN = molecular target: T38, 4H797-bN
T38 chain: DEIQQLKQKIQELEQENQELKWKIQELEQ

4H2729-bN = molecular target: T39, 4H2729-bN
T39 chain: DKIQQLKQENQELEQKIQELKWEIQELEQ

4H717-bN = molecular target: T40, 4H717-bN
T40 chain: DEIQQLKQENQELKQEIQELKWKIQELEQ

4H454-bN = molecular target: T41, 4H454-bN
T41 chain: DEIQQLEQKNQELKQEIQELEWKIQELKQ

4H1257-bN = molecular target: T42, 4H1257-bN
T42 chain: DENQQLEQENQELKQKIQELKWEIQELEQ

4H967-bN = molecular target: T43, 4H967-bN
T43 chain: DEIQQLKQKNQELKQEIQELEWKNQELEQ

4H3855-bN = molecular target: T44, 4H3855-bN
T44 chain: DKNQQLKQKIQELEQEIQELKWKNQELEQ

4H2576-bN = molecular target: T45, 4H2576-bN
T45 chain: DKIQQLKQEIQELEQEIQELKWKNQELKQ

4H1845-bN = molecular target: T46, 4H1845-bN
T46 chain: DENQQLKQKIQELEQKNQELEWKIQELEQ

4H3185-bN = molecular target: T47, 4H3185-bN
T47 chain: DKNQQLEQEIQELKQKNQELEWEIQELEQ

4H72-bN = molecular target: T48, 4H72-bN
T48 chain: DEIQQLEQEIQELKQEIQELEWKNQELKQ

4H2667-bN = molecular target: T49, 4H2667-bN
T49 chain: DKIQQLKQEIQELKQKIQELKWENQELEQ

4H883-bN = molecular target: T50, 4H883-bN
T50 chain: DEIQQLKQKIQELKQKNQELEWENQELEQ

4H607-bN = molecular target: T51, 4H607-bN
T51 chain: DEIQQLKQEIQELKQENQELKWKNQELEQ

4H568-bN = molecular target: T52, 4H568-bN
T52 chain: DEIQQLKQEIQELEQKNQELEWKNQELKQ

4H1446-bN = molecular target: T53, 4H1446-bN
T53 chain: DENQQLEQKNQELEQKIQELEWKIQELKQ

4H331-bN = molecular target: T54, 4H331-bN
T54 chain: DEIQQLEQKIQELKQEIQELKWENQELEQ

4H1828-bN = molecular target: T55, 4H1828-bN
T55 chain: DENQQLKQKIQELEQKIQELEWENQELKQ

DEIQQLEQENQELEQKIQELEWKIQELKQ [4H166-bN]
interaction score (4H2585-bN): -0.823
interaction score (4H3297-bN): 1.54
interaction score (4H349-bN): -0.759
interaction score (4H796-bN): -1.95
interaction score (4H949-bN): -0.601
interaction score (4H2859-bN): 0.54
interaction score (4H56-bN): -0.199
interaction score (4H2233-bN): 0.155
interaction score (4H730-bN): -0.71
interaction score (4H2143-bN): 0.201
interaction score (4H264-bN): 0.717
interaction score (4H2760-bN): 0.225
interaction score (4H3364-bN): -0.154
interaction score (4H2162-bN): 0.326
interaction score (4H2931-bN): -0.274
interaction score (4H235-bN): -0.365
interaction score (4H3041-bN): 1.6
interaction score (4H3381-bN): 0.0552
interaction score (4H166-bN): 0.12
interaction score (4H2253-bN): -0.769
interaction score (4H2518-bN): 1.34
interaction score (4H2444-bN): 0.231
interaction score (4H932-bN): -0.134

DENQQLEQENQELKQKIQELKWEIQELEQ [4H1257-bN]
interaction score (4H3354-bN): -1.08
interaction score (4H908-bN): -1.39
interaction score (4H754-bN): -1.46
interaction score (4H2618-bN): -0.173
interaction score (4H918-bN): -1.21
interaction score (4H2442-bN): -1.13
interaction score (P3A-bN): -1.36
interaction score (4H338-bN): -0.857
interaction score (4H3782-bN): 1.9
interaction score (4H4001-bN): -1.89
interaction score (4H3112-bN): -0.702
interaction score (4H953-bN): -0.733
interaction score (4H687-bN): -1.24
interaction score (4H3427-bN): -0.768
interaction score (4H797-bN): -0.946
interaction score (4H2729-bN): -0.506
interaction score (4H717-bN): -1.05
interaction score (4H454-bN): 0.889
interaction score (4H1257-bN): -1.67
interaction score (4H967-bN): -0.47
interaction score (4H3855-bN): -0.77
interaction score (4H2576-bN): -0.613
interaction score (4H1845-bN): -0.503
interaction score (4H3185-bN): -1.45
interaction score (4H72-bN): -1.99
interaction score (4H2667-bN): -1.35
interaction score (4H883-bN): -1.31
interaction score (4H607-bN): -0.95
interaction score (4H568-bN): -1.28
interaction score (4H1446-bN): -0.533
interaction score (4H331-bN): -1.48
interaction score (4H1828-bN): -0.561
